Assay results: patent publication US20230034474A1 (AC IMMUNE, published 2023)
Residue numbers refer to the chain shown, from its start. Read-outs that look alike come from different tables or passages of the source.

B1: ACI-8041-1F11B5-Ab1 (antibody, mouse IgG2a, kappa, V domains shown)
VH: QVQLKESGPGLVAPSQSLSITCTVSGFSLTNYGVSWIRQPPGKGLEWLGVIWGDGSTNYHSALISRLSISKDNSKSQVFLKLNSLQTDDTATYYCTKGAGSWGQGIPVTVSA
VL: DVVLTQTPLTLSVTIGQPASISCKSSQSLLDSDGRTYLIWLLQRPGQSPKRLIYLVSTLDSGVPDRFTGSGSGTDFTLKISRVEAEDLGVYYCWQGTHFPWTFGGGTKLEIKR
notes: Murine IgG2a/kappa; also called ACI-8041-1F111B5-Ab1; ACI-8041- F1B5-Ab1
B2: ACI-8041-2B9H5-Ab1 (antibody, mouse IgG2a, kappa, V domains shown)
VH: QVQLQQSDAELVKPGASVKISCKVSGYTFTDHPIHWMKQRPDQGLEWIGYFYPRDSSTHYNEKFKGKATLTADKSSSTAYMQLNSLTSEDSAVYFCARSMGYWGQGTSVTVSS
VL: DIKMTQSPSSMYASLGERVTITCKASQDINSYLSWFQQKPGKSPKTLIYRANRLVDGVPSRFSGSGSGQDYSLTISSLDYEDMGIYYCLQYDEFPPTFGAGTKLELKR
notes: Murine IgG2a/kappa; also called AC-8041-2B95-Ab1
B3: ACI-8041-5A2D4-Ab1 (antibody, mouse IgG2a, kappa, V domains shown)
VH: EVQLQQSGPELVKPGASVKISCKTSGYTFTENTMHWVKQIHGKSLEWIGGINPNNGVTNNNQKFEGKATLTVDKSSSTAYMELRSLTSEDSAVYYCARSDYDALYYSMDCWGQGTSVTVSS
VL: EIVLTQSPTTMAASPGEKITITCSGSSSIISNYLHWYQQKPGFSPKLLIYRTSNLASGVPTRFSGSGSGTSYSLTIGTMEAEDVATYYCQQGSSIPFTFGSGTKLEIKR
notes: Murine IgG2a/kappa
B4: ACI-8041-6C3C4-Ab1 (antibody, mouse IgG2a, kappa, V domains shown)
VH: EVQLQQSGPELVKPGASVNISCKTSGYTFTEYTMHWMKQSHGKSLEWIGGINPNNGVTGYNQKFKGRATLTVDKSSSTAYMELRSLTSEDSAVYYCARSDYDDLYYAMDYWGQGTSVTVSS
VL: B3 VL with G25A, I30S, T61A
notes: Murine IgG2a/kappa; also called ACD-8041-63C4-Ab1
B5: ACI-8041-9D7E1-Ab1 (antibody, mouse IgG2a, kappa, V domains shown)
VH: EVMLVESGGGLVKPGGSLKLSCAASGFTFSSYAMSWVRQTPEKRLEWVATISSGGNYTYCPDSVKGRFTISRDNAKNTLYLQMSSLRSEDTAMYYCAAYAYDDGYYFDYWGQGTTLTVSS
VL: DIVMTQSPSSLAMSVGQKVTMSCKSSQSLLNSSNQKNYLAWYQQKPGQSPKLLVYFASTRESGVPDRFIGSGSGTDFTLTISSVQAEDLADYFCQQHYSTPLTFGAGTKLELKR
notes: Murine IgG2a/kappa
B6: ACI-8041-10H3B11-Ab1 (antibody, mouse IgG2a, kappa, V domains shown)
VH: B5 VH
VL: DIQMTQSPSSLSASLGGKVTITCKASQDINKYIAWYQHKPGKGPRLLIHYTSTLQPGIPSRFSGSGSGRDYSFSISNLGPEDIATYYCLQYDNLLTFGGGTKLEIKR
notes: Murine IgG2a/kappa; Same VH as ACI-8041-9D7E1-Ab1; also called ACI-8041-11B3B11-Ab1; AC-8041-13B11-Ab
B7: ACI-31-25B1-Ab2 (murine IgG2a with a lambda light chain) (antibody, V domains shown)
VH: EVQLVESGGDLVKPGGSLKLSCAASRFTFSTYGMSWVRQTPDKRLEWVATISSGRSYTYYADSVKGRFTISRDNAKNTLYLQMSSLKSEDTAMYYCARNSNNQRDYYAMDYWGQGTSVTVSS
VL: QLVLTQSSSASFSLGASAKLTCTLSSQHITYTIEWYQQQPLKPPKYVMVLEKDGSHSTGDGIPDRFSGSSSGADRYLSISNIQPEDEAVYICGVGDAIKEQFVYVFGGGTKVTVLG
notes: also called AC-31-25B1-Ab2
B8: ACI-24-41F12-Ab3 (IgG2a isotype) (antibody, V domains shown)
VH: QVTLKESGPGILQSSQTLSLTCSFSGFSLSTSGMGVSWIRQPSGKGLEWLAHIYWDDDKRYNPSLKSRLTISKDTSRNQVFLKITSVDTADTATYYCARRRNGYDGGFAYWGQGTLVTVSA
VL: DVLMTQTPLSLPVSLGDQASISCRSSQSIVHSNGNTYLEWYLQKPGQSPKLLIYKVSNRFSGVPDRFSGSGSGTDFTLKISRVEAEDLGVYYCFQGSHVPLTFGAGTKLELKR
notes: Recombinant murine IgG2a/kappa with the same VH/VL as ACI-24-41F12-Ab2; Biotinylated when used as detection antibody in the sandwich ELISA; also called ACI-24-41F12-Ab3-rec1
B9: ACI-8039-306H5-Ab1 (antibody, mouse IgG2a, kappa, V domains shown)
VH: QVTLKESGPGILKPSQTLSLTCSFSGFSLSTSGMGVGWIRQPSGKGLEWLAHIWWDDDKYYNPSLKSQLTISKDTSRNQIFLKITSVDTADTATYYCVRSLYFDYWGQGTTLTVSS
VL: B8 VL with L3V, I29L, E39H, Y92F, F94S, G96S, S97T
notes: Murine IgG2a/kappa; also called AC-8039-306H5-Ab1
B10: ACI-8037-109F4-Ab1 (antibody, mouse IgG2a, kappa, V domains shown)
VH: QVTLKESGPGILQPSQTLSLTCSFSGFSLSTSGMGVSWIRQPSGKGLEWLAHIYWDDDKRYNPSLKSRLTISKDTSRNQVFLKITSVDTADAGTYYCARRPIRTVVDAMDYWGQGTSVTVSL
VL: B8 VL with S28T, K50N
notes: Murine IgG2a/kappa
B11: ACI-8037-103H5-Ab2 (antibody, mouse IgG2a, kappa, V domains shown)
VH: QVTLKESGPGILKPSQTLSLTCSFSGFSLSTSGMGVGWIRQPSGKGLEWLAHIWWDDDKYYNPSLKSRLTISKDSSRNQVFLKITSVDTADTATYYCVRRGTRLEDYFDFWGQGTTLTVSS
VL: B8 VL with Q27R, Y54F, L88Q
notes: Murine IgG2a/kappa
B12: ACI-8041-3G11B3-Ab1 (antibody, mouse IgG2a, kappa, V domains shown)
VH: QVQLQQSGAELVKPGASVKLSCKASGYTFINYYIYWVKQRPGQGLEWIGEIIPSNDGTNFNEKFKTKATLTVDKSSSTAYMQLSSLTSEDSAVYYCTATGTVWGQGTLVTVSA
VL: B8 VL with N35I, L101W, A105G, L111I
notes: Murine IgG2a/kappa; also called ACD-8041-3G11B3-Ab1
B13: ACI-8041-4G6D2-Ab1 (antibody, mouse IgG2a, kappa, V domains shown)
VH: B12 VH with K13R, I30T, N31S, I34M, D56G, G57D, K65R, T66S
VL: B8 VL with L101W, A105G, L111I
notes: Murine IgG2a/kappa
B14: ACI-8039-307F7-Ab2 (antibody, mouse IgG2a, kappa, V domains shown)
VH: QVQLQQPGAELVRPGGSVKLSCKASGYSFTNYWMNWVKQRPGQGLEWIGMIHPSDSETRLNQKFKDKATLTVDKSSSTAYLQLSSPTSEDSAVYYCAKLLLYYFDYWGQGTTLTVSS
VL: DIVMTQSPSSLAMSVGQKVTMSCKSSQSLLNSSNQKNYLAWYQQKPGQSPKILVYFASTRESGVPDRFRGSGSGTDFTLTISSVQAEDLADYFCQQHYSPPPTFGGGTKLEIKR
notes: Murine IgG2a/kappa; also called AC-8039-307F7-Ab2
B15: ACI-31-30C11-Ab1 (murine IgG2a with a kappa light chain) (antibody, V domains shown)
VH: QVQLQQSGPELVKPGASVKISCKASGYAFSSSWLNWVKQRPGEGLEWIGRIYPGDGDINYNGKFKGKATLTADKSSSTAYMQLSSLTSDDSAVYFCTKRGRYALDYWGQGTSVTVSS
VL: DIVLTQSPASLAVSLGQRATISCRASKSVDNYGKSFMHWFQQKPGQPPKLLIYRASNLESGIPARFSGSGSRTDFTLTINPVEADDVATYYCQQSNEDPYTFGGGTKLEMKR
notes: also called AC-31-30C11-Ab1
B16: ACI-8041-5A6H9-Ab1 (antibody, mouse IgG2a, kappa, V domains shown)
VH: DVQLQESGPGLVKPSQSLSLTCTVTGYSITSDYAWNWIRQFPGNKLEWMGYIDYSGITSYNPSLKSRISITRDTSKNQFFLQLNSVTTEDSATYYCARISGLDYDVRAGWFASWGQGTLVTVSA
VL: DIVMTQAAFSNPVTLGTSVSISCRSSKSLLHSNGITYLYWYLQKPGQSPQLLIYQMSNLASGVPDRFSSSGSGTDFTLRISRVEAEDVGVYYCAQNLERPLTFGAGTKLELKR
notes: Murine IgG2a/kappa; also called ACI-8041-5A61H9-Ab1; AC-8041-5A619-Ab1
B17: ACI-8039-309D9-Ab2 (antibody, mouse IgG2a, kappa, V domains shown)
VH: QVQLQQSGPQLVRPGASVKISCKASGNSFTSYWMHWVKQRPGQGLEWIGMIDPSDSETRLNQKFKDKATLTVDKSSSTAYMQLSSPTSEDSAVYYCAGLYFTLDYWGQGTSVTVSS
VL: DILMTQSPSSLTVSAGEKVTMSCKSSQSLLASGNQNNYLAWHQQKPGRSPKILIIWASTRVSGVPDRFIGSGSGTDFTLTINSVQAEDLAVYYCQQSYSAPLTFGAGTKLELKR
notes: Murine IgG2a/kappa; also called AC-8039-309D9-Ab2

Tests used:
[1] = target: T1, Human Abeta1-42 biotinylated at the peptide C-terminus (human, biotin at the peptide C-terminus); assay: capture ELISA: antibody held on anti-mouse IgG Fc-coated plate, C-terminally biotinylated Abeta1-42 titrated in solution, streptavidin-HRP, O.D. 450 nm
T1 construct: also called biotinylated Abeta1-42
Protocol: (§1) Briefly, a Nunc MaxiSorp 96-well plate (Nunc) was coated for 18 h at 4° C. with 50 μL of 5 pg/mL goat anti-mouse IgG, Fc-gamma fragment specific antibody (Jackson Immune Research) diluted in carbonate-bicarbonate buffer. The plate was then washed 4-times with 300 μL of PBS containing 0.05% Tween20 (Millipore). To block non-specific binding to the plate, freshly prepared solution of PBS containing 0.05% Tween20 and 1% BSA, was added to each well (100 μL/well) and the plate was incubated for 1 h at 37° C. […] Subsequently, the plate was washed 4-times with 300 μL of PBS containing 0.05% Tween20. […] After washing 4-times with 300 μL of PBS containing 0.05% Tween20, the plate was incubated for 45 min at ambient temperature with 50 μL/well of streptavidin-HRP (R&D systems) diluted 1:200 in PBS containing 1% BSA and 0.05% Tween20. The plate was again washed 4-times with 300 μL of PBS containing 0.05% Tween20 before incubating at ambient temperature for 20 or 30 min with 50 or 100 μL/well of 3,3′,5,5′-tetramethylbenzidine (TMB) enzyme substrate (BD Bioscience). Reaction was stopped with a 1.2 M HCl (Sigma) solution. Finally, optical densities (O.D.) were read at 450 nm absorption wavelength using a Tecan Infinite plate reader.

[2] = target: T1, Human Abeta1-42 biotinylated at the …; assay: target capture ELISA: antibody held by anti-mouse Fc, biotinylated Abeta1-42 titrated in solution
Protocol: as §1

[3] = target: T2, full-length sAPPalpha fragment (UniProt P05067-4 18-612, limits assumed); assay: indirect ELISA, sAPPalpha coated
T2 construct: domain: sAPPalpha; Bought protein; also called soluble APP alpha; soluble amyloid precursor protein alpha
T2 sequence (P05067 other isoform, or with tags, fused parts or gaps limits assumed): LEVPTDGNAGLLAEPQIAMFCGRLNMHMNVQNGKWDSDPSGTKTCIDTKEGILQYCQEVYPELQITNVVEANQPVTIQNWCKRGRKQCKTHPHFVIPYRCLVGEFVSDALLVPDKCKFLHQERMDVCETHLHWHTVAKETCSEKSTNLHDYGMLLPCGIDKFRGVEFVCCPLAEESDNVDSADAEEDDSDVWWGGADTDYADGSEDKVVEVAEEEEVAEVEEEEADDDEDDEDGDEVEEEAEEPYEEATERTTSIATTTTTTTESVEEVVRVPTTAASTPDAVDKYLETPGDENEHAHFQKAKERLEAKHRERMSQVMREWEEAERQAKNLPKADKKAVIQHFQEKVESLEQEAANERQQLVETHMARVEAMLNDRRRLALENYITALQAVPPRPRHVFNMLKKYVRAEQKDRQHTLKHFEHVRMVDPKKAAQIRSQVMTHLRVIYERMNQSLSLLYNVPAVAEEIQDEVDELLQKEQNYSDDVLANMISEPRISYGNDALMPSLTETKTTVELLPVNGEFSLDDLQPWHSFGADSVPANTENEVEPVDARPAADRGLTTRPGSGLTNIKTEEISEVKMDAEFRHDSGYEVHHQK
Protocol: (§2) Antibody target binding was evaluated by an enzyme-linked immunosorbent assay (ELISA). Briefly, Nunc MaxiSorp 96-well plates (Nunc) were coated for 18 h at 4° C. with 50 μL of 10 pg/mL Abeta1-42 or bovine serum albumin (BSA, Sigma) diluted in PBS. In selected assays, the full-length sAPPalpha fragment (Sigma) was additionally included by coating wells as described above, but at 4 pg/mL (0.04 μM). Plates were then washed 4-times with 300 μL of PBS containing 0.05% Tween20 (Millipore). To block non-specific binding to the plate, freshly prepared solution of PBS containing 0.05% Tween20 and 1% BSA, was added to each well (100 μL/well) and the plates were incubated for 1 h at 37° C. Primary antibodies were diluted to 100 nM in PBS containing 1% BSA and 0.05% Tween20, followed by 3-fold serial dilutions in duplicates. Solutions were added to plates at 50 μL/well and incubated for 1 h at 37° C. Subsequently, the plates were washed 4-times with 300 μL of PBS containing 0.05% Tween20. Plates were then incubated with horseradish peroxidase (HRP) conjugated goat anti-mouse secondary IgG (Abcam) for 1 h at 37° C. After final wash step (4-times with 300 μL of PBS containing 0.05% Tween20), plates were incubated with 3,3′,5,5′-tetramethylbenzidine (TMB) substrate (BD Biosciences) and reaction stopped with a Stop Solution (Sigma). Finally, optical densities (O.D.) were read at 450 nm absorption wavelength using a Tecan Infinite plate reader. Measured values are expressed as mean O.D. from a duplicate run ±1 standard deviation of the mean (S.D.).

[4] = target: T1, Human Abeta1-42 biotinylated at the …; assay: target capture ELISA
Protocol: as §1

[5] = target: T1, Human Abeta1-42 biotinylated at the …; assay: capture ELISA: antibody held on anti-mouse IgG Fc-coated plate, C-terminally biotinylated Abeta1-42 titrated in solution, streptavidin-HRP, O.D. 450 nm; remark: listed apart in the source
Protocol: as §1

[6] = target: T1, Human Abeta1-42 biotinylated at the …; assay: as above; remark: listed apart in the source
Protocol: as §1

Abeta1-42 [7] = target: T3, Abeta1-42 (human); assay: indirect ELISA, Abeta1-42 coated, antibody titrated
T3 construct: coated on plates in the direct ELISA, in solution as analyte in the sandwich ELISA; also called human Abeta 1-42; amyloid-beta 1-42
Protocol: as §2

[8] = target: T1, Human Abeta1-42 biotinylated at the …; assay: capture ELISA: antibody held on anti-mouse IgG Fc-coated plate, C-terminally biotinylated Abeta1-42 titrated in solution, streptavidin-HRP, O.D. 450 nm; remark: listed apart in the source
Protocol: as §1

Abeta1-42 [9] = target: T3, Abeta1-42; assay: sandwich ELISA: ACI-31-25B1-Ab2 coated as capture, analyte Abeta1-42 titrated, biotinylated ACI-24-41F12-Ab3 as detection, streptavidin-HRP, O.D. 450 nm
Protocol: After washing 4-times with 300 μL of PBS containing 0.05% Tween20, the plate was incubated for 45 min at ambient temperature with 50 μL/well of streptavidin-HRP (R&D systems) diluted 1:200 in PBS containing 1% BSA and 0.05% Tween20. The plate was again washed 4-times with 300 μL of PBS containing 0.05% Tween20 before incubating at ambient temperature for 20 or 30 min with 50 or 100 μL/well of 3,3′,5,5′-tetramethylbenzidine (TMB) enzyme substrate (BD Bioscience). Reaction was stopped with a 1.2 M HCl (Sigma) solution. Finally, optical densities (O.D.) were read at 450 nm absorption wavelength using a Tecan Infinite plate reader.
Briefly, a Nunc MaxiSorp 96-well plate (Nunc) was coated for 18 h at 4° C. with 50 μL of capture antibody at 5 μg/mL, diluted in carbonate-bicarbonate buffer. The plate was then washed and blocked as described in the preceding paragraph.

bovine serum albumin [10] = target: T4, bovine serum albumin (bovine, UniProt P02769 25-607); assay: indirect ELISA, plate coated with BSA, antibody titrated, anti-mouse IgG-HRP, O.D. 450 nm
T4 construct: Negative control antigen; also called BSA
Protocol: (§3) Antibody target binding was evaluated by an enzyme-linked immunosorbent assay (ELISA). Briefly, Nunc MaxiSorp 96-well plates (Nunc) were coated for 18 h at 4° C. with 50 μL of 10 pg/mL Abeta1-42 or bovine serum albumin (BSA, Sigma) diluted in PBS. In selected assays, the full-length sAPPalpha fragment (Sigma) was additionally included by coating wells as described above, but at 4 pg/mL (0.04 μM). Plates were then washed 4-times with 300 μL of PBS containing 0.05% Tween20 (Millipore). To block non-specific binding to the plate, freshly prepared solution of PBS containing 0.05% Tween20 and 1% BSA, was added to each well (100 μL/well) and the plates were incubated for 1 h at 37° C. Primary antibodies were diluted to 100 nM in PBS containing 1% BSA and 0.05% Tween20, followed by 3-fold serial dilutions in duplicates. Solutions were added to plates at 50 μL/well and incubated for 1 h at 37° C. Subsequently, the plates were washed 4-times with 300 μL of PBS containing 0.05% Tween20. Plates were then incubated with horseradish peroxidase (HRP) conjugated goat anti-mouse secondary IgG (Abcam) for 1 h at 37° C. […] Finally, optical densities (O.D.) were read at 450 nm absorption wavelength using a Tecan Infinite plate reader. Measured values are expressed as mean O.D. from a duplicate run ±1 standard deviation of the mean (S.D.).

Abeta1-42 [11] = target: T3, Abeta1-42; assay: indirect ELISA, plate coated with Abeta1-42, antibody titrated, anti-mouse IgG-HRP, O.D. 450 nm
Protocol: as §3

bovine serum albumin [12] = target: T4, bovine serum albumin; assay: indirect ELISA, plate coated with BSA, antibody titrated, anti-mouse IgG-HRP, O.D. 450 nm; remark: listed apart in the source
Protocol: as §3

Abeta1-42 [13] = target: T3, Abeta1-42; assay: indirect ELISA, plate coated with Abeta1-42, antibody titrated, anti-mouse IgG-HRP, O.D. 450 nm; remark: listed apart in the source
Protocol: as §3

bovine serum albumin [14] = target: T4, bovine serum albumin; assay: indirect ELISA, plate coated with BSA, antibody titrated, anti-mouse IgG-HRP, O.D. 450 nm; remark: listed apart in the source
Protocol: as §3

Abeta1-42 [15] = target: T3, Abeta1-42; assay: indirect ELISA, plate coated with Abeta1-42, antibody titrated, anti-mouse IgG-HRP, O.D. 450 nm; remark: listed apart in the source
Protocol: as §3

| Binder | binding result [3] | binding result [4] | also measured |
| --- | --- | --- | --- |
| B1 | no binding | – | EC50 (read off the curve) [1]: ~0.3 nM; Kd [2]: 0.343 nM |
| B2 | no binding | binds | – |
| B3 | no binding | binds | – |
| B4 | no binding | binds | – |
| B5 | no binding | – | EC50 (read off the curve) [5]: ~1 nM; Kd [2]: 1.1 nM |
| B6 | no binding | – | Kd [2]: 2.6 nM; EC50 (read off the curve) [6]: ~2 nM |
| B7 | – | – | Kd (Abeta1-42 [7]): 0.041 nM; EC50 (read off the curve) [8]: ~0.4 nM; Kd [2]: 0.312 nM; EC50 (read off the curve) (Abeta1-42 [9]): ~9 nM; binding result (bovine serum albumin [10]): no binding (tested: 100 nM); EC50 (read off the curve) (Abeta1-42 [11]): ~0.04 nM |
| B8 | – | binds | binding result (bovine serum albumin [12]): no binding (tested: 100 nM); Kd (Abeta1-42 [7]): 0.066 nM; EC50 (read off the curve) (Abeta1-42 [13]): ~0.07 nM |
| B9 | no binding | binds | – |
| B10 | – | binds | – |
| B11 | – | binds | – |
| B12 | no binding | binds | – |
| B13 | no binding | binds | – |
| B14 | no binding | binds | – |
| B15 | no binding | binds | Kd (Abeta1-42 [7]): 0.196 nM; binding result (bovine serum albumin [14]): no binding (tested: 100 nM); EC50 (read off the curve) (Abeta1-42 [15]): ~0.2 nM |
| B16 | no binding | binds | – |
| B17 | no binding | binds | – |
